Laboratory results as given in paper PMC11481574.
Where “and” joins values, the source holds several entries; their conditions need not be identical. Identical values can stand only once.

Target: Vibrio His-FliFG fusion protein with the FliG-G214S mutation (Vibrio alginolyticus)
Assay: cryo-EM structure; single-particle cryo-EM of the purified, concentrated MS-ring in buffer with LMNG; grids frozen after blotting at 4°C, 100% humidity; two classes with 35- or 34-fold rotational symmetry

## Vibrio His-FliFG fusion protein with the FliG-G214S mutation
  stoichiometry N: 35 and 34
